Assay results from the supplement of paper PMC12042874.
± gives the uncertainty stated by the source.

Assay: amyloid nucleation score (Sup35N fusion, yeast selection) (log enrichment); library NNK1; higher = more nucleation; inactive = no reads after selection
Summary of the method: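 DiMSum was used to calculate nucleation scores as log enrichment of output over input reads, centred on the mode score of non-aggregating sequences. Sequences with fewer than 100 input reads were not scored. Input and output came from Illumina sequencing of plasmid inserts in psi-negative yeast expressing peptides of 20 random codons fused to Sup35N, induced 24 hours with 100 μM copper sulfate and then grown 7 days at 30°C on medium lacking adenine and uracil.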

Row | Substance | amyloid nucleation score
1 | KCMTIAWIQSSVSAILLLNC | -0.181 ± 1.4
2 | DSTRTDSLYVSACHLLYLAE | 0.178 ± 0.64
3 | ISSRRCVRED | inactive
4 | SFIIVYY | 1.84 ± 0.19
5 | NVSISVR | -0.054 ± 0.38
6 | IWPLGNAIK | 1.93 ± 0.51
7 | VFNWTHPWLSQH | -0.047 ± 0.78
8 | YLPTVIPVFI | 0.125 ± 0.98
9 | RFCLAVGLRMGYFLGCSDFR | -0.45 ± 1.4
10 | VRSPFSIHRRFLTLGIQEFS | 1.4 ± 0.74
11 | HTRRTEFHAGYYRINTAYAV | 0.268 ± 0.7
12 | IPYLN | 1.15 ± 0.54
13 | YGINAVFLLIDLDERITDYL | 0.105 ± 0.29
14 | SWRTCAPTWKVALFIWMCTS | 3.39 ± 0.17
15 | HSVYL | 1.24 ± 0.3
16 | PYFLNCRPLRA | 0.815 ± 0.52
17 | DLIGFSWGTIEWLRA | -0.931 ± 0.64
18 | LFCSLGSSPAYVNKWCVHLE | 0.862 ± 0.45
19 | IMLLAWQLSKMSSFVCKSTR | 0.16 ± 0.74
20 | SNDTLS | 0.265 ± 0.39
21 | LSFEIFMNVTRPSICHKVSL | -2.04 ± 2.4
22 | IGRMSYWGCRTLNNSPCGKF | -1.22 ± 1.7
23 | RCRAVELLEVRRLQMRSGHH | -0.295 ± 0.34
24 | VLSVGQESTMISESGFNTEN | -0.001 ± 0.55

Row | Substance | amyloid nucleation score
25 | GWSIMVGQMASLLWCIRAGT | 0.116 ± 0.3
26 | FLYGYGADPMPMSSVGRGVK | -0.864 ± 0.51
27 | TSGSCSACCLWVRGDNETFM | 7.881 ± 0.048
28 | FFIICSYR | -0.868 ± 0.37
29 | TNWVWELL | -0.544 ± 1.9
30 | TIRNMMMYYGSSKVSYRMNS | 0.587 ± 0.22
31 | LMWCGSANMY | 0.632 ± 1.2
32 | IIVTSKQSTTYTHLVWERSG | -0.629 ± 0.69
33 | RFLPVLVSIINKRQGGYDF | 0.064 ± 0.46
34 | TRSVWIEDRVTRAARFKGQR | -0.116 ± 0.47
35 | VWFRCWSPEVENGHVCLSCS | -0.026 ± 0.41
36 | GAVCLGQIMCSRVPRDVNVK | -0.547 ± 0.49
37 | AYGLNARIHTATGECLLGYA | -0.143 ± 0.24
38 | CSNDMGEQWWEDRYCTGKWD | -0.204 ± 0.38
39 | MASTESNPIKLLKVHLKYTS | -0.97 ± 1.4
40 | TWNRRVRVYTGYCPNVGMSL | 4.94 ± 0.059
41 | TSHSETSEAFRRFSAPFLAN | 0.497 ± 0.64
42 | PLTGAGFTIEML | -0.132 ± 0.36
43 | SEGMYSRMAIEWLSGE | 1.21 ± 0.69
44 | LCLTKNMCTSIVRVRALVCR | -0.161 ± 0.26
45 | FVATNPVL | 0.588 ± 0.42
46 | LWLRSLIVYYNSFVDMGGCA | 0.549 ± 0.3
47 | YNVSQLVLLNVFTCK | 7.459 ± 0.044
48 | VFHFYILMNCESCVTGGVPV | 7.938 ± 0.054

Row | Substance | amyloid nucleation score
49 | VALIRGRD | 0.292 ± 0.32
50 | ENLGGWAPTLCYRRT | 0.187 ± 0.4
51 | LWSYRDFRQVSTELN | -1.15 ± 2.7
52 | NSFVTVFLRWKYFVMSDMWP | -0.139 ± 0.25
53 | SYGGGYTTSQGYGLGELTKY | 0.543 ± 1.1
54 | TSEQYESLCWVSSLRRIFQK | 0.043 ± 0.48
55 | GYNNRRDFPLSMPCRH | -0.363 ± 0.88
56 | TSSCFMESRLK | 0.179 ± 0.59
57 | CNCAGDLYAVRLYDGGCSSL | -0.006 ± 0.46
58 | AIPLSDRR | 1.48 ± 0.88
59 | IFTRW | -0.741 ± 0.49
60 | GIENLRTDV | 1.34 ± 0.37
61 | IFSIRFTLCGWPLLCHIMLL | -0.302 ± 0.31
62 | RNRYTFSIRLVQTDYCFLGM | 1.63 ± 0.19
63 | LSFLSSVSDLIKLSSIFYGY | -0.264 ± 0.37
64 | YGGLGYSLIGCYADLDGVIL | 1.47 ± 0.39
65 | CDVLELFKNTVGSFGGIVVS | 0.204 ± 0.79
66 | VHIFCSTTCFFMNFMLIQNK | -0.045 ± 0.51
67 | LFTIMTLDCNFRLSGLSLAI | 0.236 ± 0.21
68 | FGSARGHSGY | 1.52 ± 0.18
69 | PLAPMFRLWENSVRYIAKLW | 1.22 ± 0.64
70 | GLASVRILGRMQV | -0.106 ± 0.36
71 | FLFYRCLGVKFFVFFMIVSK | -0.817 ± 2.4
72 | NYLTHG | 0.311 ± 0.37
